The results in this text go back to publication PMC6757032.

The assay has as its target pre-formed trans-SNARE complexes between V- and T-liposomes (syntaxin-1A S186C-TMR, cysteine-free SNAP-25a, synaptobrevin-2 L26C-Alexa-488) (rat), P32851.

Chain of pre-formed trans-SNARE complexes between V- and T-liposomes (syntaxin-1A S186C-TMR, cysteine-free SNAP-25a, synaptobrevin-2 L26C-Alexa-488) (rat), P32851 (P32851 whole entry C145A/S186C/C271A/C272A, chain 1 of 3): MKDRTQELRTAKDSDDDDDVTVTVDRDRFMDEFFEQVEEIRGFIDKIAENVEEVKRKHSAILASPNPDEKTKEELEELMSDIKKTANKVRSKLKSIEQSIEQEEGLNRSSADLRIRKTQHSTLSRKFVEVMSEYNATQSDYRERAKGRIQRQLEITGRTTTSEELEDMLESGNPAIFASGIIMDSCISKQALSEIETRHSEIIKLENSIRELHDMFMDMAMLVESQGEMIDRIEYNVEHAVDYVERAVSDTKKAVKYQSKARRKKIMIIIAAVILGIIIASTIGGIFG
Chain of pre-formed trans-SNARE complexes between V- and T-liposomes (syntaxin-1A S186C-TMR, cysteine-free SNAP-25a, synaptobrevin-2 L26C-Alexa-488) (rat), P32851 (P60881 other isoform, or with tags, fused parts or gaps, stated change not applied, chain 2 of 3, further chain): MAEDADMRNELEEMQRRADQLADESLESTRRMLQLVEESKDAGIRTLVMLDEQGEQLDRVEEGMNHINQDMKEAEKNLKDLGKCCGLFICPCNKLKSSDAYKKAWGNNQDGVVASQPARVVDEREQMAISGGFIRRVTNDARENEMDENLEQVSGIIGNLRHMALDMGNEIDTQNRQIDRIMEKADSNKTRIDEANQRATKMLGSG
Chain of pre-formed trans-SNARE complexes between V- and T-liposomes (syntaxin-1A S186C-TMR, cysteine-free SNAP-25a, synaptobrevin-2 L26C-Alexa-488) (rat), P32851 (P63045 other isoform, or with tags, fused parts or gaps, stated change not applied, chain 3 of 3, further chain): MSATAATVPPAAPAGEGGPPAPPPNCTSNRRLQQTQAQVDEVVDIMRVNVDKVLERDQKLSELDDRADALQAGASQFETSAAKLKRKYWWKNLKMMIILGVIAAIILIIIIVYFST

B1: full-length Bos Taurus αSNAP, P81125 1-295 (natural protein)
chain: MDNSGKEAEAMALLAEAERKVKNSQSFFSGLFGGSSKIEEACEIYARAANMFKMAKNWSAAGSAFCQAAHVHLQLQSKHDAATCFVDAGNAFKKADPQEAINCLMRAIEIYTDMGRFTIAAKHHISIAEIYETELVDIEKAIAHYEQSADYYKGEESNSSANKCLLKVAGYAAQLEQYQKAIDIYEQVGTNAMDSPLLKYSAKDYFFKAALCHFCIDMLNAKLAVQKYEELFPAFSDSRECKRIKKLLEAHEEQNVDSYTEAVKEYDSISRLDQWLTTMLLRIKKTIQGDEEDLR
modifications: here or on the partner: tetramethylrhodamine on the cysteine at residue 186 | Alexa-488 on the cysteine at residue 26
Consider B1, for which the inhibition of lipid mixing (DiD de-quenching at 37 °C) mediated by trans-SNARE complexes pre-formed between V- and T-liposomes; titration with WT αSNAP is 170 nM.
